Measurements as given in EP4676958A2 (dated 2026).

Target: T1, active human KLK7 (human, UniProt P49862 30-253)
T1 construct: mature; also called hKLK7; active form of hKLK7
Assay: SPR, antibody captured on Protein A chip, 20 nM hKLK7 (FIG. 11A, 11F)

T1 sequence (P49862 30-253): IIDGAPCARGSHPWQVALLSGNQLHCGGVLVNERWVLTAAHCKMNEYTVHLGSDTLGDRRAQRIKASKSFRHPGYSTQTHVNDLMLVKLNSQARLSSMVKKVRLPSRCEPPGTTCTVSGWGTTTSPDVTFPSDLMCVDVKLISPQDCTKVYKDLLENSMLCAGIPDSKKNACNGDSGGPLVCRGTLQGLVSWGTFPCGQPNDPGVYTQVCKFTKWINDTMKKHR

B1: KLK7-L1-Ab8 (antibody, V domains shown)
VH: QVQLVQSGAEVKKPGASVKVSCKASGYTFTSEGIHWVRQAPGQGLEWMGSISASSGDTNYAQKLQGRVTMTTDTSTSTAYMELRSLRSDDTAVYYCARSAGYGARHWYFDLWGQGTMVTVSS
VL: DIQMTQSPSSLSASVGDRVTITCRASQSISSYLNWYQQKPGKAPKLLIYGASSLQSGVPSRFSGSGSGTDFTLTISSLQPEDFATYYCDQWYSTPPITFGGGTKVEIK
notes: captured on Protein A; also called KLK7-Ll-Ab8; KLK7- Ll-Ab8
B1: binds.
